In patent US20130252251A1 (CENTRE NATIONAL DE LA RECHERCHE SCIENTIFIQUE, published 2013):

Experiments:
[1] = molecular target: membrane receptor interacting with BLV; test: flow cytometry, tagged RBD on blood neutrophils of one CF patient
[2] = molecular target: membrane receptor interacting with BLV; test: flow cytometry, tagged RBD on sputum neutrophils of one CF patient
[3] = molecular target: membrane receptor interacting with BLV; test: flow cytometry, tagged RBD on blood neutrophils of healthy control donors (N=8)
[4] = molecular target: membrane receptor interacting with BLV; test: flow cytometry, tagged RBD on blood neutrophils of rheumatoid arthritis patients (N=9)
[5] = molecular target: PAR (PeRV A Receptor) receptors: human Riboflavin Transporter 1 (hRFT1 or PAR2) and hRFT3 (or PAR1); test: flow cytometry, tagged RBD on blood neutrophils of one CF patient
[6] = molecular target: PAR (PeRV A Receptor) receptors: human Riboflavin Transporter 1 (hRFT1 or PAR2) and hRFT3 (or PAR1); test: flow cytometry, tagged RBD on sputum neutrophils of one CF patient
[7] = molecular target: PAR (PeRV A Receptor) receptors: human Riboflavin Transporter 1 (hRFT1 or PAR2) and hRFT3 (or PAR1); test: flow cytometry, tagged RBD on blood neutrophils of healthy control donors (N=8)
[8] = molecular target: PAR (PeRV A Receptor) receptors: human Riboflavin Transporter 1 (hRFT1 or PAR2) and hRFT3 (or PAR1); test: flow cytometry, tagged RBD on blood neutrophils of rheumatoid arthritis patients (N=9)
[9] = molecular target: T1, PiT1 membrane receptor (human, UniProt Q8WUM9 1-679); test: flow cytometry, tagged RBD on blood neutrophils of healthy control donors (N=8)
T1 construct: whole, on cells; Endogenous receptor on primary blood or sputum neutrophils
T1 sequence: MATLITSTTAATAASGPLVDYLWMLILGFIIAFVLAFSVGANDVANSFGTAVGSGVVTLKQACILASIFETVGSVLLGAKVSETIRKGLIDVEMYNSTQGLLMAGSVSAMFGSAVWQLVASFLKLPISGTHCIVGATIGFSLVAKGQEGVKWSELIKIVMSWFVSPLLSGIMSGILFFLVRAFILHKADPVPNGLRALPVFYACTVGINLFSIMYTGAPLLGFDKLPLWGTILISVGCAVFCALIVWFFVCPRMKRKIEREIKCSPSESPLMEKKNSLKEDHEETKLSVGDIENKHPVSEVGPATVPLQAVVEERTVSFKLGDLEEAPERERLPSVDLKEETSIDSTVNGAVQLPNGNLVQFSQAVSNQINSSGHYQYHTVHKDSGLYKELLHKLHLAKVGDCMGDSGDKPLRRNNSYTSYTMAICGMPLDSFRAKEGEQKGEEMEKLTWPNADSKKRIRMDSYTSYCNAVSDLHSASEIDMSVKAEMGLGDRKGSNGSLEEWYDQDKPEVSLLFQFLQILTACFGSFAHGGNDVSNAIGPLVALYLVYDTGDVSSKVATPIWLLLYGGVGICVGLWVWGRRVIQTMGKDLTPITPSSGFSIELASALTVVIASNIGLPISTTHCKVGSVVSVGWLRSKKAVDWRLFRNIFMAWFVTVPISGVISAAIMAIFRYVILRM

[10] = molecular target: T1, PiT1 membrane receptor; test: flow cytometry, tagged RBD on blood neutrophils of rheumatoid arthritis patients (N=9)
[11] = molecular target: T2, PiT2 membrane receptor (human, UniProt Q08357 1-652); test: flow cytometry, tagged RBD on blood neutrophils of healthy control donors (N=8)
T2 construct: whole, on cells; Endogenous receptor on primary blood or sputum neutrophils; also called FiT2
T2 sequence: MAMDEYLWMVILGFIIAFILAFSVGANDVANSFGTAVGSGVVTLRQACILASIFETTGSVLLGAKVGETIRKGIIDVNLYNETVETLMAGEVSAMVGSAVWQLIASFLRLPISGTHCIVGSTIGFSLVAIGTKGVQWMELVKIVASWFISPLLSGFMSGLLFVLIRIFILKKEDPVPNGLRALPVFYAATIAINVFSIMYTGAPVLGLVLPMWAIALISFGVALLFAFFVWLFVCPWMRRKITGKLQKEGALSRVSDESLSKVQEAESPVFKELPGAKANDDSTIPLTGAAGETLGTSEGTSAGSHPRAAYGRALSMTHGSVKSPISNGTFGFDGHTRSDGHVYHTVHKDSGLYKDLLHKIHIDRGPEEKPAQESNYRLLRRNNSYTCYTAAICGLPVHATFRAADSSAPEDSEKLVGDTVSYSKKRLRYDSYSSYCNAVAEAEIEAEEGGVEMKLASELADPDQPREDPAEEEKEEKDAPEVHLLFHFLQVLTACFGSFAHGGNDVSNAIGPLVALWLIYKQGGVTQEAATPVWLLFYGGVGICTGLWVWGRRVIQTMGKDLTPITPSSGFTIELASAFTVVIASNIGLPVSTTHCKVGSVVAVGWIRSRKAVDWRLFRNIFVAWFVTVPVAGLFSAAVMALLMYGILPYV

[12] = molecular target: T2, PiT2 membrane receptor; test: flow cytometry, tagged RBD on blood neutrophils of rheumatoid arthritis patients (N=9)
[13] = molecular target: T3, ASCT2 membrane receptor (human, UniProt Q15758 1-541); test: flow cytometry, tagged RBD on blood neutrophils of healthy control donors (N=8)
T3 construct: whole, on cells; Endogenous receptor on primary blood or sputum neutrophils; also called ASTC2
T3 sequence: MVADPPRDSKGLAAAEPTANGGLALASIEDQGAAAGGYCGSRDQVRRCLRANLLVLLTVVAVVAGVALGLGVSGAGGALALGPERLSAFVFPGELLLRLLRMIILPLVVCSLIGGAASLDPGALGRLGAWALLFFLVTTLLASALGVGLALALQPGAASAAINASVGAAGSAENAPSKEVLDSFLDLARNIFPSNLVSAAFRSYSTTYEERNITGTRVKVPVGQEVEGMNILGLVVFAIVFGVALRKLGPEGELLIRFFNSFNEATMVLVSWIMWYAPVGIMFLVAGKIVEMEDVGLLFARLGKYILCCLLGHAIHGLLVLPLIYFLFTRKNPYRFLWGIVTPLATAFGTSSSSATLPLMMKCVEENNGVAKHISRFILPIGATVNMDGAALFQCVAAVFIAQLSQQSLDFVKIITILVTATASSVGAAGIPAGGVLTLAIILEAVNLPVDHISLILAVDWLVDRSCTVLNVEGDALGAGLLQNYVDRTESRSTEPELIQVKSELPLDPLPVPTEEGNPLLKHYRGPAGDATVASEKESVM

[14] = molecular target: T3, ASCT2 membrane receptor; test: flow cytometry, tagged RBD on blood neutrophils of rheumatoid arthritis patients (N=9)
[15] = molecular target: T4, GLUT1 membrane receptor (human, UniProt P11166 1-492); test: flow cytometry, tagged RBD on blood neutrophils of healthy control donors (N=8)
T4 construct: whole, on cells; Endogenous receptor on primary blood or sputum neutrophils
T4 sequence: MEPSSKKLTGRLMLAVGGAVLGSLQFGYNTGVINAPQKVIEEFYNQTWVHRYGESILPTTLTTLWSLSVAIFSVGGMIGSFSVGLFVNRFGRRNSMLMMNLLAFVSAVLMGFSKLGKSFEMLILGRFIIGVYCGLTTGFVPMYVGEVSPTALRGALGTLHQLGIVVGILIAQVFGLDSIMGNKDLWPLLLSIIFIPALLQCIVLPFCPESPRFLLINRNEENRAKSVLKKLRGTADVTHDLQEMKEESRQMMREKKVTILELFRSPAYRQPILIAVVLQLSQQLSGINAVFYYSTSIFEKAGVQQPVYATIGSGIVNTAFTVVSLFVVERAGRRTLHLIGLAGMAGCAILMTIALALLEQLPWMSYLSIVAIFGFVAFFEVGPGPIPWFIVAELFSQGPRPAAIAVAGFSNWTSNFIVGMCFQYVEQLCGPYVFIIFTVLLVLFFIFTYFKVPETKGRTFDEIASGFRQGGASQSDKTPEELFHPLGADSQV

[16] = molecular target: T4, GLUT1 membrane receptor; test: flow cytometry, tagged RBD on blood neutrophils of rheumatoid arthritis patients (N=9)

## Bovine Leukaemia Virus receptor-binding domain (BLV RBD) (from UniProt P25507 34-215) (ligand)
[1]
  deltaGeomean of fluorescence: 0
[2]
  deltaGeomean of fluorescence: 140
[3]
  deltaMedian of fluorescence (median): 3550
[4]
  deltaMedian of fluorescence (median): 2750

## Porcine Endogeneous Retrovirus-A receptor-binding domain (PERVA RBD) (ligand)
[5]
  deltaGeomean of fluorescence: 4160
[6]
  deltaGeomean of fluorescence: 284
[7]
  deltaMedian of fluorescence (median): 3740
[8]
  deltaMedian of fluorescence (median): 2320

B1: Koala endogeneous Retrovirus receptor-binding domain (KoRV RBD) (ligand)
chain: NQQHNNPHQPMTLTWQVLSQTGSVVWEKKAVEPPWTWWPSLEPDVCALVAGLESWDIPELTASASQQARPPDSNYEHAYNQITWGTLGCSYPRARTRIARSQFYVCPRDGRSLSEARRCGGLESLYCKEWGCETAGTAYWQPRSSWDLITVGQGHPTGTCERTGWCNPLKIEFTEPGKRFRNWLQGRTWGLRFYVTGHPGVQLTIRLVITSPPPVVVGPDPVLAEQGPPRKIPFLPRVPVPTLSPPASPIPTVQASPPAPSTPSPTTGDRLFGLVQGAFLALNATNPEATESCWLC
notes: not shown: tag: EGFP, mouse-IgG Fc or rabbit-IgG Fc
[9]
  deltaMedian of fluorescence (median): 2640
[10]
  deltaMedian of fluorescence (median): 1880

B2: Amphotropic Murine Leukemia Retrovirus receptor-binding domain (AMLV RBD) (ligand)
chain: AESPHQVFNVTWRVTNLMTGRTANATSLLGTVQDAFPKLYFDLCDLVGEEWDPSDQEPYVGYGCKYPAGRQRTRTFDFYVCPGHTVKSGCGGPGEGYCGKWGCETTGQAYWKPTSSWDLISLKRGNTPWDTGCSKVACGPCYDLSKVSNSFQGATRGGRCNPLVLEFTDAGKKANWDGPKSWGLRLYRTGTDPITMFSLTRQVLNVGPRVPIGPNPVLPDQRLPSSPIEIVPAPQPPSPLNTSYPPSTTSTPSTSPTSPSVPQPPPGTGDRLLALVKGAYQALNLTNPDKTQECWLC
notes: as for B1
[11]
  deltaMedian of fluorescence (median): 3930
[12]
  deltaMedian of fluorescence (median): 2860

B3: Feline endogenous retrovirus receptor-binding domain (RD114 RBD) (ligand)
chain: GFDDPRKAIALVQKQHGKPCECSGGQVSEAPPNSIQQVTCPGKTAYLMTNQKWKCRVTPKISPSGGELQNCPCNTFQDSMHSSCYTEYRQCRRINKTYYTATLLKIRSGSLNEVQILQNPNQLLQSPCRGSINQPVCWSATAPIHISDGGGPLDTKRVWTVQKRLEQIHKAMTPELQYHPLALPKVRDDLSLDARTFDILNTTFRLLQMSNFSLAQDCWLC
notes: as for B1
[13]
  deltaMedian of fluorescence (median): 1630
[14]
  deltaMedian of fluorescence (median): 1650

B4: Human T Leukaemia Virus-2 receptor-binding domain (HTLV-2 RBD) (ligand)
chain: QQSRCTLTVGISSYHSSPCSPTQPVCTWNLDLNSLTTDQRLHPPCPNLITYSGFHKTYSLYLFPHWIKKPNRQGLGYYSPSYNDPCSLQCPYLGCQSWTCPYTGPVSSPSWKFHSDVNFTQEVSQVSLRLHFSKCGSSMTLLVDAPGYDPLWFITSEPTQPPPTSPPLVHDSDLEHVLTPSTSWTTKILKFIQLTLQSTNYSCMVC
notes: as for B1
[15]
  deltaMedian of fluorescence (median): 4670
[16]
  deltaMedian of fluorescence (median): 3180
